# Laboratory results published in PMC7145699, “Structural insights into target DNA recognition by R2R3-MYB transcription factors”.
# T1: WER L59A (Arabidopsis, UniProt Q9SEI0 12-130, L59A)
# T1 sequence: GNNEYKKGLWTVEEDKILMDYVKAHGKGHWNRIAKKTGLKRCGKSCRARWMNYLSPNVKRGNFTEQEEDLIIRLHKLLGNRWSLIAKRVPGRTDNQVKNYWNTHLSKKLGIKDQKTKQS
# T2: WER L59E (Arabidopsis, UniProt Q9SEI0 12-130, L59E)
# T2 sequence: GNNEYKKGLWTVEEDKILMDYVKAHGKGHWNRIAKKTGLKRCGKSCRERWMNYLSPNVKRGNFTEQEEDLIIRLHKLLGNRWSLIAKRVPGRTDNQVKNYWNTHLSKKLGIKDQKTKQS
# T3: WER K55A (Arabidopsis, UniProt Q9SEI0 12-130, K55A)
# T3 sequence: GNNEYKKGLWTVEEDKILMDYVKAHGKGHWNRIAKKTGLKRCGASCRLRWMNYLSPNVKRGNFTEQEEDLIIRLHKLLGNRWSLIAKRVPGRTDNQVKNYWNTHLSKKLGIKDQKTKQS
# B1: 5mC12 DNA (AA5mC) (dsDNA)
# DNA 1: AAATTCTCCAACCGCATTTTC
# DNA 2: GAAAATGCGGTTGGAGAATTT
# modifications: 5mC at C12 of strand 1
# B2: GL2 promoter WER target DNA (dsDNA)
# DNA 1: AAATTCTCCAACCGCATTTTC
# DNA 2: GAAAATGCGGTTGGAGAATTT
# B3: T12:A11* (dsDNA)
# DNA 1: AAATTCTCCAATCGCATTTTC
# DNA 2: GAAAATGCGATTGGAGAATTT
# B4: A12:T11* (dsDNA)
# DNA 1: AAATTCTCCAAACGCATTTTC
# DNA 2: GAAAATGCGTTTGGAGAATTT
# B5: G12:C11* (dsDNA)
# DNA 1: AAATTCTCCAAGCGCATTTTC
# DNA 2: GAAAATGCGCTTGGAGAATTT
# How the values were obtained:
# Test in all cases: ITC; ITC: 150 mM NaCl, 20 mM HEPES pH 7.5, 25 C, 400 uM protein into 20 uM DNA; EMSA: 150 mM NaCl, 20 mM Tris-HCl pH 8.0, on ice 1 h, 0.1 uM DNA, 6% native PAGE 0.5x TBE
# Settings in all cases: protein: recombinant; tags: 6xHis-SUMO removed by Ulp1; blunt
# WER L59A = target: T1, WER L59A
# WER L59E [1] = target: T2, WER L59E
# WER L59E [2] = target: T2, WER L59E; remark: listed apart in the source
# WER K55A = target: T3, WER K55A
Binder,binding result (WER L59A),also measured
B1,binds,binding signal (WER L59E [1]): ~4 fold decrease in affinity vs N1
B2,–,Kd (WER L59A): 47 nM; Kd (WER L59E [2]): 47.8 nM; binding signal (WER K55A): > 40 fold decrease in affinity vs WT
B3,binds,–
B4,binds,–
B5,binds,–
